Read-outs that look alike come from different tables or passages of the source.
Columns and labels:
[1] = target: SARS-CoV-2 Sclamp (SARS-CoV-2) (UniProt P0DTC2)
[2] = target: SARS-CoV-2 Sclamp (SARS-CoV-2) (UniProt P0DTC2); experiment: characterization of the lead candidate; ELISA per paragraph 282
[3] = target: SARS-CoV-2-foldon (SARS-CoV-2) (UniProt P0DTC2); experiment: ELISA on purified antigen, antibody titrated
[4] = target: SARS-CoV-2 Sclamp (SARS-CoV-2) (UniProt P0DTC2); experiment: ELISA on purified antigen, antibody titrated

Substance | Kd [1] [nM] | Kd [2] [nM] | EC50 (read off the curve) [3] [nM] | EC50 (read off the curve) [4] [nM]
CB6 (antibody) | 0.15 | – | – | –
CR3022 (antibody) | 0.13 | 0.3 | – | –
DH1047 (antibody) | – | – | 0.4 | 0.3
S309 (antibody) | 0.08 | – | – | –
huCR3022 (antibody) | – | – | 0.6 | 0.6
